Assay results: patent publication US20230285520A1, “DEVELOPMENT OF A NEW ENGINEERED TOBACCO ETCH VIRUS (TEV) PROTEASE ACTIVABLE IN THE CYTOSOL OR SECRETORY PATHWAY” (Università Cattolica del Sacro Cuore, priority 2020, published 2023)

Key:
[1] = biological target: pro-TEVcs-BDNF (HA-pro-TEVcs-BDNF-Flag-SEP), P23560
TMD-TEVcs-tTA = TMD-TEVcs-tTA / tetO-EGFP reporter expression in HEK293T cells; assay type: cell-based; details: control cells exposed to vehicle, absence of activator
Excerpt: A system was used based upon the expression of a fluorophore after nuclear translocation of a transactivator sequestered on the plasmatic membrane by a TEV recognition site (TEVcs).
In particular, the inventors made to express in HEK293T cells a “tetracycline operator EGFP conjugated” (tetO-EGFP) and a synthetic protein consisting of a transactivator controlled by tetracycline (tTA), bound to a transmembrane domain (TMD) through a TEV recognition site (TEVcs) (TMD-TEVcs-tTA) (FIG. 7).

CFP-TEVcs-YFP = assay: Cleavage of CFP-TEVcs-YFP substrate in the cytosol of transfected HEK293T cells (Western blot); assay type: cell-based
Excerpt: Enzymatic Activity of Unica-TEV in Vital Cells • 13) Use CFP-TEVcs-YFP synthetic recombinant protein as substrate;
This artificial construct has two fluorophores conjugated by the cleavage sequence recognized by TEV (TEVcs). AntiGFP (Biolegend) antibody was used to verify cleavage of CFP-TEVcs-YFP by unica-TEV.
In order to do it, HEK293T cells were transfected (PEI MAX—Polysciences, Inc.) with the plasmids codifying constitutively active wild-type TEV (pcDNA-TEV), and engineered TEV with UniRapR (pcDNA-unica-TEV) and left to grow for 24-48 h at 37° C., 5% CO2.
For both of them, CFP-TEVcs-YFP was co-transfected.
After 24h the cells were treated for 1-3 h with rapamycin (1 μM) or DMSO as control. The cells were washed with cold PBS and lysed with lysis buffer containing rapamycin (1 μM) or DMSO. 10% of the volume of samples was prepared (addition of 2× Laemmli protein sample buffer+boiling for 5 min) for the electrophoretic analysis on gel of SDS-polyacrylamide.

[2] = system: pro-TEVcs-BDNF human recombinant; assay: Cleavage/maturation of pro-TEVcs-BDNF in transfected HEK293T cells (Western blot); assay type: cell-based
[3] = mutations I138T, S153N and T180A; relative to wild-type TEV; cited from earlier work
pro-TEVcs-BDNF = assay: In vitro protease test after immunoprecipitation of pro-TEVcs-BDNF and unica-TEV; assay type: biochemical; details: in presence of rapamycin; SDS-PAGE
TrkB = assay: ERK phosphorylation in cells expressing pro-TEVcs-BDNF, unica-secTEV and TrkB-mGFP; assay type: cell-based; details: chemogenetic activation of unica-secTEV; co-expressed TrkB-mGFP
Excerpt: In order to evaluate if mature BDNF obtained after activation of unica-secTEV was able to bind and activate its TrkB endogenous target receptor, pro-TEVcs-BDNF was expressed, unica-secTEV with TrkB-mGFP.

CA1 pyramidal neurons = assay: Dendritic spines of CA1 pyramidal neurons in transfected organotypic hippocampal sections; assay type: cell-based, rats; details: unica-secTEV activated with rapamycin for 24 h
Excerpt: In order to test the biological activity of mature BDNF obtained with the chemogenetic strategy in neurons, BDNF was immunoprecipitated and purified by HEK293T cells co-transfected with unica-secTEV and treated with rapamycin. […] In fact, BDNF biochemical features, including the positive charges on its surface, prevent the spreading thereof and keep its action locally at level of synapses. This feature obstructs even the effectiveness of injections of purified BDNF as therapeutic strategy. Since the extracellular application could involve both sides, even the exogenous application of purified BDNF is not useful in sectioning the roles of pre- and postsynaptic release. […] These gene approaches involve the deletion both of proBDNF and BDNF, the contribution of each form to the observed effect cannot be distinguished. The chemogenetic strategy developed by the inventors to control the protein cleavage is useful even to evaluate the specific autocrine action of BDNF inducible intracellular maturation in CA1 pyramidal neurons. In order to monitor BDNF specific effects in the postsynaptic neurons, organo-typical sections containing the hippocampus of rats with unica-secTEV, pro-TEVcs-BDNF and dsRed2 were transfected ballistically to display in a fluorescent way CA1 pyramidal neurons. After 48 h, unica-secTEV with rapamycin was activated for 24 h.

[4] = system: hippocampal organotypic sections; assay: ERK phosphorylation in hippocampal organotypic sections treated with purified mature BDNF; assay type: cell-based, rat; details: hippocampal organotypic sections treated for 30 minutes, Western blot
Protocol: HEK293T cells were transfected (PEI MAX—Polysciences, Inc.) with the plasmids codifying for unica-secTEV (pcDNA-unica-secTEV-SV5) and pro-TEVcs-BDNF (HA-pro-TEVcs-BDNF-Flag-SEP) and left for 24 h at 37° C., 5% CO2.
After 24 h the cells were treated for 1-3 h with rapamycin (1 μM) or DMSO as control. The cells were washed with cold PBS and lysed with lysis buffer containing rapamycin (1 μM) or DMSO. The lysate was immunoprecipitated with FLAG-M2-beads for 1 h and subsequently FLAG peptide (sigma F3290-4 mg) was added. After 1 h the beads were removed by Micro bio-spin Colums®—Bio-Rad. The eluted protein was kept at −20° C. Once quantified by commercially available ELISA kits its biological effect was tested as described in FIG. 6.
In order to test the biological activity of mature BDNF obtained with the chemogenetic strategy in neurons, BDNF was immunoprecipitated and purified by HEK293T cells co-transfected with unica-secTEV and treated with rapamycin. […] In fact, BDNF biochemical features, including the positive charges on its surface, prevent the spreading thereof and keep its action locally at level of synapses. This feature obstructs even the effectiveness of injections of purified BDNF as therapeutic strategy. […]

B1: unica-TEV (unimolecular chemical-activatable TEV) (protein)
chain: GESLFKGPRDYNPISSTICHLTNESDGHTTSLYGIGFGPFIITNKHLFRRNNGTLLVQSLHGVFKVKNTTTLQQHLIDGRDMIIIRMPKDFPPFPQKLKFREPQREERICLVTTNFQTKSGGSTCVVHYTGMLEDGKKFDSSRDRNKPFKFMLGKQEVIRGWEEGVAQMSVGQRAKLTISPDYAYGATGHGSGSGSGVKDLLQAWDLYYHVFRRISGPPGPGSGLWHEMWHEGLEEASRLYFGERNVKGMFEVLEPLHAMMERGPQTLKETSFNQAYGRDLMEAQEWCRKYMKSGSSGGSGSGIIPPHATLVFDVELLKLEGGSMSSMVSDTSCTFPSSDGTFWKHWIQTKDGQCGNPLVSTRDGFIVGIHSASNFTNTNNYFASVPKNFMELLTNQEAQQWVSGWRLNADSVLWGGHKVFMVKPEEPFQPVKEATQLMN
[1]
  in vitro protease test after immunoprecipitation of both proteins, with rapamycin, SDS-PAGE: SDS-PAGE migration of pro-peptide was noted

B2: unica-TEV without linker: unica-TEV construct with no linker (NL) between TEV and UniRapR (protein)
chain: GESLFKGPRDYNPISSTICHLTNESDGHTTSLYGIGFGPFIITNKHLFRRNNGTLLVQSLHGVFKVKNTTTLQQHLIDGRDMIIIRMPKDFPPFPQKLKFREPQREERICLVTTNFQTKSTCVVHYTGMLEDGKKFDSSRDRNKPFKFMLGKQEVIRGWEEGVAQMSVGQRAKLTISPDYAYGATGHGSGSGSGVKDLLQAWDLYYHVFRRISGPPGPGSGLWHEMWHEGLEEASRLYFGERNVKGMFEVLEPLHAMMERGPQTLKETSFNQAYGRDLMEAQEWCRKYMKSGSSGGSGSGIIPPHATLVFDVELLKLEMSSMVSDTSCTFPSSDGIFWKHWIQTKDGQCGSPLVSTRDGFIVGIHSASNFTNTNNYFTSVPKNFMELLTNQEAQQWVSGWRLNADSVLWGGHKVFMVKPEEPFQPVKEATQLMN
TMD-TEVcs-tTA
  EGFP signal (background): substantially lower
TMD-TEVcs-tTA; listed as NL construct
  EGFP signal (background): almost wholly absent

B3: unica-TEV: engineered single-chain TEV protease with uniRapR domain inserted between S120 and M121, rapamycin-activable; SEQ ID Nr. 5 (protein)
chain: B1 chain
modifications: Peptide sequence of unica-TEV engineered protease (1)..(440)
CFP-TEVcs-YFP; in absence of rapamycin
  cleavage of CFP-TEVcs-YFP (background activity): absence of cleavage background
CFP-TEVcs-YFP; in presence of rapamycin
  cleavage of CFP-TEVcs-YFP: identical cleavage profile
[2]; HEK293T, cytosolic localization of TEV protease
  splitting of pro-TEVcs-BDNF in living cells by cytosolic protease: nor unica-TEV in presence of rapamycin, nor an active mutating form of TEV, split pro-TEVcs-BDNF
[3]
  kcat/Km ratio unica-TEV/wtTEV: 2.81
pro-TEVcs-BDNF
  cleavage of pro-TEVcs-BDNF in vitro: SDS-PAGE migration of pro-peptide was noted

B4: unica-secTEV: unica-TEV with N-terminal secretion signal and mutations for activity in the secretory pathway; SEQ ID Nr. 6 (protein)
chain: QGAQGESLFKGPRDYNPISSTICHLTQESDGHTTSLYGIGFGPFIITNKHLFRRNNGTLLVQSLHGVFKVKNTTTLQQHLIDGRDMIIIRMPKDFPPFPQKLKFREPQREERICLVTTNFQTKSGGSTCVVHYTGMLEDGKKFDSSRDRNKPFKFMLGKQEVIRGWEEGVAQMSVGQRAKLTISPDYAYGATGHGSGSGSGVKDLLQAWDLYYHVFRRISGPPGPGSGLWHEMWHEGLEEASRLYFGERNVKGMFEVLEPLHAMMERGPQTLKETSFNQAYGRDLMEAQEWCRKYMKSGSSGGSGSGIIPPHATLVFDVELLKLEGGSMSSMVSDTSSTFPSSDGTFWKHWIQTKDGQCGNPLVSTRDGFIVGIHSASNFGNTNNYFASVPKNFMELLTNQEAQQWVSGWRLNADSVLWGGHKVFMSKPEEPFQPVKEATQLMNEGGLE
modifications: left off: small tags and cut ends
[2]; in absence of rapamycin, secretory pathway
  cleavage of pro-TEVcs-BDNF (background activity): absence of cleavage background
[2]; in presence of rapamycin, secretory pathway, Western blot
  maturation (cleavage) of pro-TEVcs-BDNF in vital cells: 41-kDa band was noted designating BDNF maturation in the living cells and capability of unica-secTEV to make pro-TEVcs-BDNF to mature in vital cells
TrkB
  ERK phosphorylation: clear increase in the kinase phosphorylation
CA1 pyramidal neurons
  morphology of dendritic spines: significant changes in the morphology of dendritic spines
  volume of heads of dendritic spines: increase in the volume of heads of dendritic spines
CA1 pyramidal neurons; co-transfected pro-TEVcs-BDNF and dsRed2
  density of dendritic spines: significant increase in the density of dendritic spines

B5: purified mature BDNF: mature BDNF immunoprecipitated and purified from HEK293T cells co-transfected with unica-secTEV and treated with rapamycin (protein, UniProt P23560 129-247, looked up)
Neurotrophic factor BDNF: HSDPARRGELSVCDSISEWVTAADKKTAVDMSGGTVTVLEKVPVSKGQLKQYFYETKCNPMGYTKEGCRGIDKRHWNSQCRTTQSYVRALTMDSKKRIGWRFIRIDTSCVCTLTIKRGR
modifications: Neurotrophic factor BDNF
notes: mature BDNF immunoprecipitated and purified from HEK293T cells co-transfected with unica-secTEV and treated with rapamycin
[4]
  ERK phosphorylation: significant increase in ERK phosphorylation signals
[4]; listed as mature BNDF
  ERK phosphorylation: induces a phosphorylation of ERK protein
